From patent US20250171562A1 come the findings set out here.

B1: CIgG4B1A2(G4S)2 (Fc fusion)
chain 1: GPPCPPCPAPEFLGGPSVFLFPPKPKDTLMISRTPEVTCVVVDVSQEDPEVQFNWYVDGVEVHNAKTKPREEQFNSTYRVVSVLTVLHQDWLNGKEYKCKVSNKGLPSSIEKTISKAKGQPREPQVYTLPPCQEEMTKNQVSLWCLVKGFYPSDIAVEWESNGQPENNYKTTPPVLDSDGSFFLYSRLTVDKSRWQEGNVFSCSVMHEALHNHYTQKSLSLSLGKGGGGSGGGGSQVQLQESGGGLVQTGGSLRLSCAVHGRTFSNTGMGWFRQAPGNERQFVAIISPSGTSTYYADSVKGRFTISRDPAKNTVYLQMNSLKMDDTAVYYCAASYGSNWSTLRHQRRNEYDAWGQGTQVAVS
chain 2: GPPCPPCPAPEFLGGPSVFLFPPKPKDTLMISRTPEVTCVVVDVSQEDPEVQFNWYVDGVEVHNAKTKPREEQFNSTYRVVSVLTVLHQDWLNGKEYKCKVSNKGLPSSIEKTISKAKGQPREPQVCTLPPSQEEMTKNQVSLSCAVKGFYPSDIAVEWESNGQPENNYKTTPPVLDSDGSFFLVSRLTVDKSRWQEGNVFSCSVMHEALHNHYTQKSLSLSLGKGGGGSGGGGSEVQLLESGGGLVQPGGSLRLSCAASGFRFGNYDMAWVRQAPGKRYEWVSSIDTGGDITHYADSVKGRFTISRDNAKNTLYLQMNSLRPEDTAEYWCATDEEYALGPNEFDYYGQGTLVTVS
B2: CIgG4B1A2(RS) (Fc fusion)
chain 1: GPPCPPCPAPEFLGGPSVFLFPPKPKDTLMISRTPEVTCVVVDVSQEDPEVQFNWYVDGVEVHNAKTKPREEQFNSTYRVVSVLTVLHQDWLNGKEYKCKVSNKGLPSSIEKTISKAKGQPREPQVYTLPPCQEEMTKNQVSLWCLVKGFYPSDIAVEWESNGQPENNYKTTPPVLDSDGSFFLYSRLTVDKSRWQEGNVFSCSVMHEALHNHYTQKSLSLSLGKRSQVQLQESGGGLVQTGGSLRLSCAVHGRTFSNTGMGWFRQAPGNERQFVAIISPSGTSTYYADSVKGRFTISRDPAKNTVYLQMNSLKMDDTAVYYCAASYGSNWSTLRHQRRNEYDAWGQGTQVAVS
chain 2: GPPCPPCPAPEFLGGPSVFLFPPKPKDTLMISRTPEVTCVVVDVSQEDPEVQFNWYVDGVEVHNAKTKPREEQFNSTYRVVSVLTVLHQDWLNGKEYKCKVSNKGLPSSIEKTISKAKGQPREPQVCTLPPSQEEMTKNQVSLSCAVKGFYPSDIAVEWESNGQPENNYKTTPPVLDSDGSFFLVSRLTVDKSRWQEGNVFSCSVMHEALHNHYTQKSLSLSLGKRSEVQLLESGGGLVQPGGSLRLSCAASGFRFGNYDMAWVRQAPGKRYEWVSSIDTGGDITHYADSVKGRFTISRDNAKNTLYLQMNSLRPEDTAEYWCATDEEYALGPNEFDYYGQGTLVTVS
B3: NIgG4B2A1(G4S)3 (Fc fusion)
chain 1: QVQLVESGGGLVQAGGSLRLSCAVFGSTFSNNVADWYRQAPGKQRELVARISASGATREYGDSVKGRFTISRDDAKNTMYLQMNNLKPEDTAVYRCHKIEWEDLSRKDYWGQGTQVTVSGGGGSGGGGSGGGGSGPPCPPCPAPEFLGGPSVFLFPPKPKDTLMISRTPEVTCVVVDVSQEDPEVQFNWYVDGVEVHNAKTKPREEQFNSTYRVVSVLTVLHQDWLNGKEYKCKVSNKGLPSSIEKTISKAKGQPREPQVYTLPPCQEEMTKNQVSLWCLVKGFYPSDIAVEWESNGQPENNYKTTPPVLDSDGSFFLYSRLTVDKSRWQEGNVFSCSVMHEALHNHYTQKSLSLSLGK
chain 2: EVQLLESGGGLVQPGGSLRLSCAASGFTFGNYDMAWVRQAPGKRPEWVSSIDTGGDITHYADSVKGRFTISRDNAKNTLYLQMNSLRPEDTAVYWCATDEEYALGPNEFDYYGQGTLVTVSSGGGGSGGGGSGGGGSGPPCPPCPAPEFLGGPSVFLFPPKPKDTLMISRTPEVTCVVVDVSQEDPEVQFNWYVDGVEVHNAKTKPREEQFNSTYRVVSVLTVLHQDWLNGKEYKCKVSNKGLPSSIEKTISKAKGQPREPQVCTLPPSQEEMTKNQVSLSCAVKGFYPSDIAVEWESNGQPENNYKTTPPVLDSDGSFFLVSRLTVDKSRWQEGNVFSCSVMHEALHNHYTQKSLSLSLGK
B4: NIgG4B2A1(RS) (Fc fusion)
chain 1: QVQLVESGGGLVQAGGSLRLSCAVFGSTFSNNVADWYRQAPGKQRELVARISASGATREYGDSVKGRFTISRDDAKNTMYLQMNNLKPEDTAVYRCHKIEWEDLSRKDYWGQGTQVTVSRSGPPCPPCPAPEFLGGPSVFLFPPKPKDTLMISRTPEVTCVVVDVSQEDPEVQFNWYVDGVEVHNAKTKPREEQFNSTYRVVSVLTVLHQDWLNGKEYKCKVSNKGLPSSIEKTISKAKGQPREPQVYTLPPCQEEMTKNQVSLWCLVKGFYPSDIAVEWESNGQPENNYKTTPPVLDSDGSFFLYSRLTVDKSRWQEGNVFSCSVMHEALHNHYTQKSLSLSLGK
chain 2: EVQLLESGGGLVQPGGSLRLSCAASGFTFGNYDMAWVRQAPGKRPEWVSSIDTGGDITHYADSVKGRFTISRDNAKNTLYLQMNSLRPEDTAVYWCATDEEYALGPNEFDYYGQGTLVTVSSRSGPPCPPCPAPEFLGGPSVFLFPPKPKDTLMISRTPEVTCVVVDVSQEDPEVQFNWYVDGVEVHNAKTKPREEQFNSTYRVVSVLTVLHQDWLNGKEYKCKVSNKGLPSSIEKTISKAKGQPREPQVCTLPPSQEEMTKNQVSLSCAVKGFYPSDIAVEWESNGQPENNYKTTPPVLDSDGSFFLVSRLTVDKSRWQEGNVFSCSVMHEALHNHYTQKSLSLSLGK
B5: NIgG4B2A1(G4S)1 (Fc fusion)
chain 1: QVQLVESGGGLVQAGGSLRLSCAVFGSTFSNNVADWYRQAPGKQRELVARISASGATREYGDSVKGRFTISRDDAKNTMYLQMNNLKPEDTAVYRCHKIEWEDLSRKDYWGQGTQVTVSGGGGSGPPCPPCPAPEFLGGPSVFLFPPKPKDTLMISRTPEVTCVVVDVSQEDPEVQFNWYVDGVEVHNAKTKPREEQFNSTYRVVSVLTVLHQDWLNGKEYKCKVSNKGLPSSIEKTISKAKGQPREPQVYTLPPCQEEMTKNQVSLWCLVKGFYPSDIAVEWESNGQPENNYKTTPPVLDSDGSFFLYSRLTVDKSRWQEGNVFSCSVMHEALHNHYTQKSLSLSLGK
chain 2: EVQLLESGGGLVQPGGSLRLSCAASGFTFGNYDMAWVRQAPGKRPEWVSSIDTGGDITHYADSVKGRFTISRDNAKNTLYLQMNSLRPEDTAVYWCATDEEYALGPNEFDYYGQGTLVTVSSGGGGSGPPCPPCPAPEFLGGPSVFLFPPKPKDTLMISRTPEVTCVVVDVSQEDPEVQFNWYVDGVEVHNAKTKPREEQFNSTYRVVSVLTVLHQDWLNGKEYKCKVSNKGLPSSIEKTISKAKGQPREPQVCTLPPSQEEMTKNQVSLSCAVKGFYPSDIAVEWESNGQPENNYKTTPPVLDSDGSFFLVSRLTVDKSRWQEGNVFSCSVMHEALHNHYTQKSLSLSLGK
B6: CIgG4B1A2(G4S)3 (Fc fusion)
chain 1: GPPCPPCPAPEFLGGPSVFLFPPKPKDTLMISRTPEVTCVVVDVSQEDPEVQFNWYVDGVEVHNAKTKPREEQFNSTYRVVSVLTVLHQDWLNGKEYKCKVSNKGLPSSIEKTISKAKGQPREPQVYTLPPCQEEMTKNQVSLWCLVKGFYPSDIAVEWESNGQPENNYKTTPPVLDSDGSFFLYSRLTVDKSRWQEGNVFSCSVMHEALHNHYTQKSLSLSLGKGGGGSGGGGSGGGGSQVQLQESGGGLVQTGGSLRLSCAVHGRTFSNTGMGWFRQAPGNERQFVAIISPSGTSTYYADSVKGRFTISRDPAKNTVYLQMNSLKMDDTAVYYCAASYGSNWSTLRHQRRNEYDAWGQGTQVAVS
chain 2: GPPCPPCPAPEFLGGPSVFLFPPKPKDTLMISRTPEVTCVVVDVSQEDPEVQFNWYVDGVEVHNAKTKPREEQFNSTYRVVSVLTVLHQDWLNGKEYKCKVSNKGLPSSIEKTISKAKGQPREPQVCTLPPSQEEMTKNQVSLSCAVKGFYPSDIAVEWESNGQPENNYKTTPPVLDSDGSFFLVSRLTVDKSRWQEGNVFSCSVMHEALHNHYTQKSLSLSLGKGGGGSGGGGSGGGGSEVQLLESGGGLVQPGGSLRLSCAASGFRFGNYDMAWVRQAPGKRYEWVSSIDTGGDITHYADSVKGRFTISRDNAKNTLYLQMNSLRPEDTAEYWCATDEEYALGPNEFDYYGQGTLVTVS
B7: CIgG4B1A2(G4S)1 (Fc fusion)
chain 1: GPPCPPCPAPEFLGGPSVFLFPPKPKDTLMISRTPEVTCVVVDVSQEDPEVQFNWYVDGVEVHNAKTKPREEQFNSTYRVVSVLTVLHQDWLNGKEYKCKVSNKGLPSSIEKTISKAKGQPREPQVYTLPPCQEEMTKNQVSLWCLVKGFYPSDIAVEWESNGQPENNYKTTPPVLDSDGSFFLYSRLTVDKSRWQEGNVFSCSVMHEALHNHYTQKSLSLSLGKGGGGSQVQLQESGGGLVQTGGSLRLSCAVHGRTFSNTGMGWFRQAPGNERQFVAIISPSGTSTYYADSVKGRFTISRDPAKNTVYLQMNSLKMDDTAVYYCAASYGSNWSTLRHQRRNEYDAWGQGTQVAVS
chain 2: GPPCPPCPAPEFLGGPSVFLFPPKPKDTLMISRTPEVTCVVVDVSQEDPEVQFNWYVDGVEVHNAKTKPREEQFNSTYRVVSVLTVLHQDWLNGKEYKCKVSNKGLPSSIEKTISKAKGQPREPQVCTLPPSQEEMTKNQVSLSCAVKGFYPSDIAVEWESNGQPENNYKTTPPVLDSDGSFFLVSRLTVDKSRWQEGNVFSCSVMHEALHNHYTQKSLSLSLGKGGGGSEVQLLESGGGLVQPGGSLRLSCAASGFRFGNYDMAWVRQAPGKRYEWVSSIDTGGDITHYADSVKGRFTISRDNAKNTLYLQMNSLRPEDTAEYWCATDEEYALGPNEFDYYGQGTLVTVS
B8: NIgG4B2A1(G4S)2 (Fc fusion)
chain 1: QVQLVESGGGLVQAGGSLRLSCAVFGSTFSNNVADWYRQAPGKQRELVARISASGATREYGDSVKGRFTISRDDAKNTMYLQMNNLKPEDTAVYRCHKIEWEDLSRKDYWGQGTQVTVSGGGGSGGGGSGPPCPPCPAPEFLGGPSVFLFPPKPKDTLMISRTPEVTCVVVDVSQEDPEVQFNWYVDGVEVHNAKTKPREEQFNSTYRVVSVLTVLHQDWLNGKEYKCKVSNKGLPSSIEKTISKAKGQPREPQVYTLPPCQEEMTKNQVSLWCLVKGFYPSDIAVEWESNGQPENNYKTTPPVLDSDGSFFLYSRLTVDKSRWQEGNVFSCSVMHEALHNHYTQKSLSLSLGK
chain 2: EVQLLESGGGLVQPGGSLRLSCAASGFTFGNYDMAWVRQAPGKRPEWVSSIDTGGDITHYADSVKGRFTISRDNAKNTLYLQMNSLRPEDTAVYWCATDEEYALGPNEFDYYGQGTLVTVSSGGGGSGGGGSGPPCPPCPAPEFLGGPSVFLFPPKPKDTLMISRTPEVTCVVVDVSQEDPEVQFNWYVDGVEVHNAKTKPREEQFNSTYRVVSVLTVLHQDWLNGKEYKCKVSNKGLPSSIEKTISKAKGQPREPQVCTLPPSQEEMTKNQVSLSCAVKGFYPSDIAVEWESNGQPENNYKTTPPVLDSDGSFFLVSRLTVDKSRWQEGNVFSCSVMHEALHNHYTQKSLSLSLGK

As usually defined, the EC50 is the midpoint of the concentration-response curve.

Sequence of mixture of three Der p 2 specific recombinant human IgE clones H10, H12, P4E (human) (P01854 other isoform, or with tags, fused parts or gaps): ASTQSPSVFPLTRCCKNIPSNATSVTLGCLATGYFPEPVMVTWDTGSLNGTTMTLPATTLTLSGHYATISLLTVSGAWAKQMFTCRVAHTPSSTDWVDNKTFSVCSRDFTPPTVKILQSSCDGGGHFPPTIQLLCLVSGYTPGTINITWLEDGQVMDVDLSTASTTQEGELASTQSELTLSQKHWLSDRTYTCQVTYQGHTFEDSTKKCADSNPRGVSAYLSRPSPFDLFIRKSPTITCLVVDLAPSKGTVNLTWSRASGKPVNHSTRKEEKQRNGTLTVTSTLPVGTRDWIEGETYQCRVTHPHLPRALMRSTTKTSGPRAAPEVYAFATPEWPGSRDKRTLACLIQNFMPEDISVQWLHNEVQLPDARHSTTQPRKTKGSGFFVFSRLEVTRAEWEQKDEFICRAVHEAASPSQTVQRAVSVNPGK

This assay has as its target mixture of three Der p 2 specific recombinant human IgE clones H10, H12, P4E (human) (UniProt P01854). As to the kind of experiment: RBL-SX38 IgE displacement, FACS.
On to B1, for which the EC50 came out at 6.1 nM and the Max effect/effect 1 µM came to 100%.
For the molecule B2, the concentration giving a half-maximal response (EC50) is 11.9 nM and the Max effect/effect 1 µM amounted to 99%.
The corresponding values for B3 are 0.5 nM and 98%.
The corresponding values for B4 are 0.4 nM and 99%.
On to B5, for which the 50% effective concentration (EC50) was found to be 0.3 nM and the Max effect/effect 1 µM was 97%.
For B6, the EC50 was found to be 5.3 nM and the Max effect/effect 1 µM was determined as 100%.
The corresponding values for B7 are 8.1 nM and 100%.
The corresponding values for B8 are 0.3 nM and 98%.
